Measured values published in PMC2841503 (Molecular cell, 2010).

Biological target: yeast ubiquitin (yeast, UniProt P0CG63 1-76)
Assay: NMR titration

Chain of yeast ubiquitin (P0CG63 1-76): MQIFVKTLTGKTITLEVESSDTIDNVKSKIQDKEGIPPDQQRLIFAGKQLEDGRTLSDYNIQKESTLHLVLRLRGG

B1: S. cerevisiae Rev1 UBM2 (residues 804-857), GB1-fusion protein (domain or fragment, UniProt P12689 804-857, looked up)
chain: LEVNDLPSTMEEQFMNELPTQIRAEVRHDLRIQKKIQQTKLGNLQEKIKRREES
- binding result: binds
